# Test results from PMC11404569, “ECT2 peptide sequences outside the YTH domain regulate its m6A-RNA binding”.
# T1: ECT2-Fl mut (YTH mut) (Arabidopsis thaliana, UniProt Q9LJE5 1-667, W464A;W521A;W526A)
# T1 sequence: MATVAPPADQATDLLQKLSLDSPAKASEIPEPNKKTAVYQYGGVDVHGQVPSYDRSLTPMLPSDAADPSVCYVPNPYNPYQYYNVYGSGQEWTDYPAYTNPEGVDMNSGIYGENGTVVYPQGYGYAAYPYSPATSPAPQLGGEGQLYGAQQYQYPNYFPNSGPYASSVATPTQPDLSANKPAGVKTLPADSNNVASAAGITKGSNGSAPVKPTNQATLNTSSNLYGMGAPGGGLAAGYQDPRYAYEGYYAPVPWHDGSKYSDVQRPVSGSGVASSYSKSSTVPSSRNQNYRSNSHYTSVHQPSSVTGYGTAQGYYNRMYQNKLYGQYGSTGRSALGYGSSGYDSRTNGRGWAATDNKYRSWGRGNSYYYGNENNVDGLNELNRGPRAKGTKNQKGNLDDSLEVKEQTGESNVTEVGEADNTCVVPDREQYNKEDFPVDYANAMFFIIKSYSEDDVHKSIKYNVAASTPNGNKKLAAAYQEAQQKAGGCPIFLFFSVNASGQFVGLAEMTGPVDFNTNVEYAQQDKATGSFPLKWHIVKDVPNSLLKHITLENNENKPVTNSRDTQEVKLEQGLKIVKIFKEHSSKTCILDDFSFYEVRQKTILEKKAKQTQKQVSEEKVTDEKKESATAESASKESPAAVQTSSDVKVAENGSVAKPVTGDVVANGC
# T2: ECT2-Δα0 (Arabidopsis thaliana, UniProt Q9LJE5 1-667, del419-427)
# T2 sequence: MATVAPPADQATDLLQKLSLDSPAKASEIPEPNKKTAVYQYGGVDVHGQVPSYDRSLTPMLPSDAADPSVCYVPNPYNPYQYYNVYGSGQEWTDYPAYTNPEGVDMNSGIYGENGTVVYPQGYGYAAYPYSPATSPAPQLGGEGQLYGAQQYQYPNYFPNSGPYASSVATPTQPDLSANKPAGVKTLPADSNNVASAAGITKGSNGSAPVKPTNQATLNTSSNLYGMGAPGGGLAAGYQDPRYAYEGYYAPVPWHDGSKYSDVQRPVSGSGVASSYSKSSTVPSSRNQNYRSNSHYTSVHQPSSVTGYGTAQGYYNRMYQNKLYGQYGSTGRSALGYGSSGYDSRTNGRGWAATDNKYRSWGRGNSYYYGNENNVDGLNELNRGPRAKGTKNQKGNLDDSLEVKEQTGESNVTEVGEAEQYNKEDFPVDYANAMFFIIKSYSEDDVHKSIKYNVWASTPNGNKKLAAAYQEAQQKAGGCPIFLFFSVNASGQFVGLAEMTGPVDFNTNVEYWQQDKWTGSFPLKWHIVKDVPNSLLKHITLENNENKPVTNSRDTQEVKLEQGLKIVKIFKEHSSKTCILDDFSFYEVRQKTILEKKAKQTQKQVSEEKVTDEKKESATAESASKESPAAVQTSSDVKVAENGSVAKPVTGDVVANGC
# T3: ECT2-108 YTH mut (Arabidopsis thaliana, UniProt Q9LJE5 108-667, W464A;W521A;W526A)
# T3 sequence: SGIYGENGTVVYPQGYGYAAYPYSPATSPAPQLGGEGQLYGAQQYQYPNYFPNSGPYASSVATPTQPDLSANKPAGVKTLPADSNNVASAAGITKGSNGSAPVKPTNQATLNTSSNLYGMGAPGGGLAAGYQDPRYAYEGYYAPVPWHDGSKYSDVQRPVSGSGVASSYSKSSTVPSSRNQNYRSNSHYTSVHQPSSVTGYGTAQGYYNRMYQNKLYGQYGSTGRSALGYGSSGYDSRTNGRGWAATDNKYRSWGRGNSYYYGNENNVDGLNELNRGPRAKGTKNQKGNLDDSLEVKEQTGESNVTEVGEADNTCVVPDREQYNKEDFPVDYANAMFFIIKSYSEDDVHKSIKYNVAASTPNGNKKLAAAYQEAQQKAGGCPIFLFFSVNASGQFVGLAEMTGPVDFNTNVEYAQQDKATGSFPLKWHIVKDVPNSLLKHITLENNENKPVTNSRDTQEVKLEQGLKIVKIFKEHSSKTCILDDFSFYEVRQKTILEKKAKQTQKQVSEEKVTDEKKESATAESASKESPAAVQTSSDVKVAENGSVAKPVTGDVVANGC
# T4: ECT2-303 YTH mut (Arabidopsis thaliana, UniProt Q9LJE5 303-667, W464A;W521A;W526A)
# T4 sequence: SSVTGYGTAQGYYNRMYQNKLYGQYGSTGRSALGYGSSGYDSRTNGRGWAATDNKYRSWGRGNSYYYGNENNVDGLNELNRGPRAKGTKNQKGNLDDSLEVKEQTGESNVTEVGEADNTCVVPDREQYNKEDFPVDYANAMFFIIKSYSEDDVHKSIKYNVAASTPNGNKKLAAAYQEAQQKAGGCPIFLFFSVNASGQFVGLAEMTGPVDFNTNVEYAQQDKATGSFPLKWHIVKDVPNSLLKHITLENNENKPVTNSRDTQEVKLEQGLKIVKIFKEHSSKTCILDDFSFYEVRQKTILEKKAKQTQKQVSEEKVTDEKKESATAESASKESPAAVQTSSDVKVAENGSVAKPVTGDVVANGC
# Experiments:
# Details in all cases: protein: recombinant; tags: N-terminal His-SUMO; label: 5' FAM
# ECT2-Fl mut (YTH mut) = target: T1, ECT2-Fl mut (YTH mut); test: EMSA; EMSA: 10 nM FAM-RNA; binding buffer 10 mM HEPES pH 8.0, 50 mM KCl, 1 mM EDTA, 0.05% Triton X-100, 5% glycerol, 10 µg/mL salmon DNA, 1 mM DTT, 40 U/mL RNasin; 20 min on ice; native 8% acrylamide TBE gel at 4°C
# ECT2-Δα0 = target: T2, ECT2-Δα0; test: EMSA; close to full length, doublet kept; EMSA: 10 nM FAM-RNA; binding buffer 10 mM HEPES pH 8.0, 50 mM KCl, 1 mM EDTA, 0.05% Triton X-100, 5% glycerol, 10 µg/mL salmon DNA, 1 mM DTT, 40 U/mL RNasin; 20 min on ice; native 8% acrylamide TBE gel at 4°C
# ECT2-108 YTH mut = target: T3, ECT2-108 YTH mut; test: EMSA; up to 500 nM; EMSA: 10 nM FAM-RNA; binding buffer 10 mM HEPES pH 8.0, 50 mM KCl, 1 mM EDTA, 0.05% Triton X-100, 5% glycerol, 10 µg/mL salmon DNA, 1 mM DTT, 40 U/mL RNasin; 20 min on ice; native 8% acrylamide TBE gel at 4°C
# ECT2-303 YTH mut = target: T4, ECT2-303 YTH mut; test: as above
binder,measurement,setting,value
"AUGGGCCGUUCAUCUGCUAAAAGGACUGCUUUUGGGGCUUGU (ssRNA, m6A at position 25; thiol-protected 3' bases (*G*U)) [Probe I m6A]",binding result,ECT2-Fl mut (YTH mut),no binding
same,binding result,ECT2-Δα0,binds
same,binding result,ECT2-108 YTH mut,no binding
same,binding result,ECT2-303 YTH mut,no binding
